Assay results published in article PMC7108666.

T1: Put3 (UniProt P25502 1-979)
T1 sequence: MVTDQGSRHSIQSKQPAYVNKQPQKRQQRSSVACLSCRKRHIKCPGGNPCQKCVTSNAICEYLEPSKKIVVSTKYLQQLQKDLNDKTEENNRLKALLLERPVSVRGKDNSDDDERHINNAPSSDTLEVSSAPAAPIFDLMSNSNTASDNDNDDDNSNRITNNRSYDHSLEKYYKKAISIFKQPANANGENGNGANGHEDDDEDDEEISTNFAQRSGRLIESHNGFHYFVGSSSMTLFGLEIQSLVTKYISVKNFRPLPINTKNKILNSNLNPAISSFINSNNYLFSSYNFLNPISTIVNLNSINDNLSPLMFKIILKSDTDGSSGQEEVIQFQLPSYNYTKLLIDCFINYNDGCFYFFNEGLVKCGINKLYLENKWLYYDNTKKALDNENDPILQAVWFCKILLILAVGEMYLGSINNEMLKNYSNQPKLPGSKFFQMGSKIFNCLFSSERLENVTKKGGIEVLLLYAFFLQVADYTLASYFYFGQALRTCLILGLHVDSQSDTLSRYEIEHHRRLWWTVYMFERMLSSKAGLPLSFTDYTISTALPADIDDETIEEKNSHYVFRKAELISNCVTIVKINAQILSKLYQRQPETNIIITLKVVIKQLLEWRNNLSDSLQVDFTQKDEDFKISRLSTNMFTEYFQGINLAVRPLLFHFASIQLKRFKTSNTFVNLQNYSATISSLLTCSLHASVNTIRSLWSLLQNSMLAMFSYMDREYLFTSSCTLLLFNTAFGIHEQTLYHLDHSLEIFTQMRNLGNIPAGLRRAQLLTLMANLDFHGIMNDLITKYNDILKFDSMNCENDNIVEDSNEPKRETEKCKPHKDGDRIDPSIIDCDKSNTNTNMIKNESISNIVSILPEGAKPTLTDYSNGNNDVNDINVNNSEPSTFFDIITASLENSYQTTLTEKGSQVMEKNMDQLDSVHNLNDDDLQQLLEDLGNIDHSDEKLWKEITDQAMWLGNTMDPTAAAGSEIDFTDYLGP

B1: UAS oligonucleotide (dsDNA)
DNA 1: TCTCGGGAAGCCAACTCCGAAGC
DNA 2: GCTTCGGAGTTGGCTTCCCGAGA
B2: GRSI oligonucleotide (dsDNA)
DNA 1: GTGTTCCGGGGTTGGATGCGGAA
DNA 2: TTCCGCATCCAACCCCGGAACAC

Experiments:
Put3 = biological target: T1, Put3; test: EMSA
Put3;Myo3 = Put3;Myo3 (Saccharomyces cerevisiae?;Saccharomyces …, UniProt P25502;P36006 1-979;1-1272, |); test: EMSA

Binder | binding result (Put3) | binding result (Put3;Myo3)
B1 | binds | –
B2 | binds | binds
